Paper PMC5458078, “Global mapping of CARM1 substrates defines enzyme specificity and substrate recognition” (Nature Communications, 2017)

Legend:
[1] = system: MCF7 CARM1 KO cells; assay: Total cellular ADMA levels, stable expression, western blot; assay type: cell-based, human; details: stable expression in MCF7 CARM1 KO cells; compared with CARM1 FL and CARM1 28–608
From the text: We next sought to assess the impact of CARM1 N-terminal deletion in cells stably expressing mutant enzymes. […] To quantify the affected ADMA-containing peptides in MCF7 CARM1 KO and CARM1 140–608 expressing cells, we employed our quantitative MS method (Fig. 1a) using CARM1 28–608 as a reference for normalization (Supplementary Data 4). […] The magnitude of reduction in CARM1 140–608 cells, however, was slightly less than that in the CARM1 KO cells. […] As indicated by R^2 of 0.65, noticeable differences existed between the levels of ADMA-containing peptides in cells expressing the N-terminal truncation of CARM1 and CARM1 28–608 control (Supplementary Fig. 4f).
(§1) Cells were collected by trypsinization, washed with Dulbecco's phosphate buffer saline (Life Technologies, Carlsbad, CA) and lysed by suspension in lysis buffer (50 mM Tris-HCl pH 8.0, 150 mM NaCl, 10% glycerol, 0.5% Triton X-100 and 1 × protease inhibitor cocktail (Sigma-Aldrich)). After brief sonication followed by centrifugation, total protein was quantified using the BioRad Protein Assay (BioRad, Hercules, CA), and 20 μg protein was resolved by SDS–PAGE. Proteins were transferred to a nitrocellulose membrane for 1.5 h at 350 mA. Membranes were blocked with 5% nonfat milk at room temperature for 1 h and incubated overnight with diluted primary antibody at 4 °C. […]

[2] = system: HEK293T CARM1 KO cells; assay: Rescue of endogenous BAF155 and MED12 methylation, transient transfection, western blot; assay type: cell-based; details: transient expression in HEK293T CARM1 KO cells
Protocol: Next, we transiently transfected FL and the two aforementioned CARM1 truncations in HEK293T CARM1 KO cells and measured substrate methylation by western blotting with ADMA antibodies.
Cells were collected by trypsinization, washed with Dulbecco's phosphate buffer saline (Life Technologies, Carlsbad, CA) and lysed by suspension in lysis buffer (50 mM Tris-HCl pH 8.0, 150 mM NaCl, 10% glycerol, 0.5% Triton X-100 and 1 × protease inhibitor cocktail (Sigma-Aldrich)). After brief sonication followed by centrifugation, total protein was quantified using the BioRad Protein Assay (BioRad, Hercules, CA), and 20 μg protein was resolved by SDS–PAGE. Proteins were transferred to a nitrocellulose membrane for 1.5 h at 350 mA. Membranes were blocked with 5% nonfat milk at room temperature for 1 h and incubated overnight with diluted primary antibody at 4 °C. Membranes were then washed and incubated with HRP-conjugated secondary antibody for 1 h at room temperature. Signal was visualized by enhanced chemiluminescence reagents (Thermo Scientific, Rockford, IL) and X-ray film exposure followed by scanning and digitalization. Me-PABP1 and PABP1 antibodies, me-BAF155 antibody[20] and me-MED12 antibody[30] were generated previously in the Xu lab. FLAG antibody (catalogue #F7425) was purchased from Sigma and used at a dilution of 1:5,000; BAF155 antibody (sc-10756) was purchased from Santa Cruz and used at a dilution of 1:1,000; MED12 antibody (ab70842) was purchased from Abcam (Cambridge, MA) and used at 1:1,000 dilution.

[3] = system: BAF155, MED12, PABP1, NCOA3 and TET2; assay: Co-immunoprecipitation of BAF155, MED12, PABP1, NCOA3 and TET2 with FLAG-tagged CARM1, western blot; assay type: cell-based; details: FLAG-tagged construct transiently transfected in HEK293T CARM1 KO cells; anti-FLAG IP
From the text: The structure of the N-terminal domain of CARM1 (residues 28–140) resembles those of the EVH1 domains, a subfamily of PH domains that bind proline-rich sequences. With our discovery that CARM1 substrates contain proline-rich motifs, we posited that the protein's N-terminal domain may be required for substrate recognition. To test this hypothesis, we generated three CARM1 constructs: one full-length (CARM1 FL) and two N-terminal truncations CARM1 28–608 and CARM1 140–608 (Fig. 3a). […] We transiently transfected the three FLAG-tagged CARM1 fusion constructs in HEK293T CARM1 KO cells. CARM1 was immunoprecipitated from all three cell lines using anti-FLAG M2 resin, and four known CARM1 substrates/interactors (that is, BAF155 (ref. [20]), MED12 (ref. [30]), PABP1 (ref. [36]) and NCOA3 (ref. [19])) and newly identified TET2 were detected by western blotting. […] To globally assess the magnitude of reduction in CARM1–substrate interactions induced by the loss of the EVH1 domain, we visualized overall protein changes in CARM1 immunoprecipitates by western blotting using the ADMA antibody (Fig. 3c).
as §1, with “°C. Membranes were then washed and incubated with HRP-conjugated secondary antibody for 1 h at room temperature. Signal was visualized by enhanced chemiluminescence reagents (Thermo Scientific, Rockford, IL) and X-ray film exposure followed by scanning and digitalization.” for “°C.”

[4] = system: total cell lysates derived from MCF7 CARM1 KO cells; assay: In vitro methylation of total cell lysates by recombinant CARM1 proteins, autoradiography; assay type: biochemical, human; details: 3H-SAM, 1–4 h, 30 °C
Protocol: The FL and N-terminal domain-deleted version of human CARM1 cDNAs, and other PRMT FL cDNAs were cloned into pFN21K Halo Tag CMV Flexi mammalian expression vector (Promega, Madison, WI) using the unique Sgfl and Pmel site[55]. To express the protein, DNA constructs were transiently transfected into HEK293T CARM1 KO cells in 15 cm dishes using transIT-LT1 reagent (Mirus Bio, Madison, WI) according to the manufacturer's protocol. Proteins were allowed to express for 48 h. Cell pellets were then collected and lysed in lysis buffer (50 mM HEPES, pH 7.5, 150 mM NaCl, 0.005% NP-40, 0.5 mM EDTA, supplemented with 1 × protease inhibitor cocktail before use). The cells were sonicated on ice using a Branson Sonifier 450 with a microtip at 35% amplitude (10 s on, 30 s off, 6 cycles). […] The resin was centrifuged at 3,000 r.p.m. for 5 min, and the supernatant containing the cleaved protein was collected and protein concentration was determined using the Bradford assay (Thermo Scientific, Rockford, IL). Protein purity was assessed by running SDS–PAGE and Coomassie Blue staining.
Purified recombinant enzyme and substrates were incubated in methylation buffer (50 mM Tris-HCl, pH 8.0, 100 mM NaCl and 0.5 mM EDTA) for 1–4 h at 30 °C in the presence of 1 μl radioactive S-adenosyl-L-[methyl-^3H] methionine. […] Protein methylation was detected by autoradiography.

B1: CARM1 140–608: CARM1 140–608 lacks the first 140 residues encompassing the EVH1 domain (protein)
chain: RTEESSAVQYFQFYGYLSQQQNMMQDYVRTGTYQRAILQNHTDFKDKIVLDVGCGSGILSFFAAQAGARKIYAVEASTMAQHAEVLVKSNNLTDRIVVIPGKVEEVSLPEQVDIIISEPMGYMLFNERMLESYLHAKKYLKPSGNMFPTIGDVHLAPFTDEQLYMEQFTKANFWYQPSFHGVDLSALRGAAVDEYFRQPVVDTFDIRILMAKSVKYTVNFLEAKEGDLHRIEIPFKFHMLHSGLVHGLAFWFDVAFIGSIMTVWLSTAPTEPLTHWYQVRCLFQSPLFAKAGDTLSGTCLLIANKRQSYDISIVAQVDQTGSKSSNLLDLKNPFFRYTGTTPSPPPGSHYTSPSENMWNTGSTYNLSSGMAVAGMPTAYDLSSVIASGSSVGHNNLIPLANTGIVNHTHSRMGSIMSTGIVQGSSGAQGSGGGSTSAHYAVNSQFTMGGPAISMASPMSIPTNTMHYGS
modifications: left off: FLAG, end not stated, kept
notes: CARM1 140–608 lacks the first 140 residues encompassing the EVH1 domain
Cellular protein (ADMA) methylation levels [1]: drastically decreased levels of cellular protein methylation
Methylation of endogenous BAF155 and MED12 [2]: failed to restore endogenous protein methylation
Co-precipitation of BAF155, MED12, PABP1, NCOA3 and TET2 [3]: substantially lower amounts of them were detected
Total protein methylation of cell lysate [4]: substantial reduction of total protein methylation
